Data set [1] concerns the molecule itself. In words: SDS-PAGE in non-reducing and reducing conditions, Coomassie stain; purified protein; non-reduced against reduced.
The target in data set [2] is T1, P-selectin/Fc (human, UniProt P16109 42-771).
T1 construct: P-selectin; Labelled with IR800CW dye for the SPOT-Vim array; No catalogue number printed; also called P-sel/Fc; P-sel/Fc-IR800; source: bought: R & D Systems
T1 sequence (looked up): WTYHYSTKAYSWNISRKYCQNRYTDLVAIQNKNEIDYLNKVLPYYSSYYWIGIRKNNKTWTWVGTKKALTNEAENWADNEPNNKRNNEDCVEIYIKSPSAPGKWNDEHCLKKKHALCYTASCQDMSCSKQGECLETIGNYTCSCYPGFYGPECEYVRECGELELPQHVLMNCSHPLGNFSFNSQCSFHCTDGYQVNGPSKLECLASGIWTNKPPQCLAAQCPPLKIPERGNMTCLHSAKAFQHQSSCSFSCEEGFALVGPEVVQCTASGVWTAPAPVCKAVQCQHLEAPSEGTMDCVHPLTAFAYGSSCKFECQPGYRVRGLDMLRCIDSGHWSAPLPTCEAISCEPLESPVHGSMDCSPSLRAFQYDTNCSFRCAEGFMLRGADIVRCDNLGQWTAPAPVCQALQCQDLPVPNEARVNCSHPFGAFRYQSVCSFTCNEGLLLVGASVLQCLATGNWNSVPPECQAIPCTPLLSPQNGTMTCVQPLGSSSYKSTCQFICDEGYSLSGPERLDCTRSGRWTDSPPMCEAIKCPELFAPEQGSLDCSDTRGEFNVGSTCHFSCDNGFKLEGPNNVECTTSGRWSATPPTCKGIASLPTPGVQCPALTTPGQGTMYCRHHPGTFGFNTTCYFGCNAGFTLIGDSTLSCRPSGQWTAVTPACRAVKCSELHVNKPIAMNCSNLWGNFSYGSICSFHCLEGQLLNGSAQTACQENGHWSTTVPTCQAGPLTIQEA
In words: BLI; separate set of experiments: room temperature aliquot of rhRod (1,000 nM) on immobilized P-sel/Fc, performed as above; DPBS. The settings on record: both partners purified. For orientation: BLI is a label-free optical method that tracks binding on a fibre tip over time.

Data set [3] addresses T1, P-selectin/Fc. Briefly: BLI; rhVim or rhRod (50 μg/mL) immobilised by amine coupling on AR2G sensors; P-sel/Fc or PSGL-1/Fc as analyte, 0–1,000 nM; DPBS; steady state analysis. The settings on record: both partners purified.
Data set [4] deals with T1, P-selectin/Fc. In words: BLI; P-sel/Fc or PSGL-1/Fc (10 μg/mL) immobilised on anti-human IgG Fc (AHC) sensors; rhVim or rhRod as analyte, 0–1,000 nM; DPBS; steady state analysis. The note with it: both partners purified.
For data set [5], the target named is T1, P-selectin/Fc. In words: BLI; blocking: P-sel/Fc on AR2G sensors placed into rhRod 0–1,000 nM (association, then dissociation in DPBS), then into 500 nM PSGL-1/Fc (Sino Biological); PSGL-1/Fc response against rhRod concentration, non-linear regression; in duplicate. The note with it: both partners purified.
Data set [6] has as its target T1, P-selectin/Fc. In words: BLI; P-sel/Fc immobilised on AR2G sensors; PSGL-1/Fc (Sino Biological) as analyte, 0–1,000 nM; DPBS; in duplicate. The note with it: both partners purified.

B1: recombinant human rod domain of vimentin (domain or fragment)
chain: not shown
notes: vimentin, human, rod domain, aa residues 96-407 (base pairs 717-1,652 of NM_00380.3 as printed); 38.2 kDa used for concentration; Labelled with IR800CW dye for the SPOT-Psel array; Dimerized in non-reducing SDS-PAGE. ΔrhRod is the same protein after 10 minutes in boiling water; also called rhRod; rod domain of recombinant vimentin
The term Kd denotes the concentration at which binding is half-saturated. Higher therefore signals weaker binding. By IC50 is commonly meant the concentration at which inhibition is half-maximal. High values mean a need for much substance, low ones inhibition by little substance. B1: in data set [1], the binding result is reported as “binds”. Also, the Kd in data set [2] stood at 280 ± 61 nM; in data set [3], 41 ± 6 nM; in data set [4] it was 10 ± 0.6 nM. In data set [5], this molecule returned an IC50 of 20 nM.

B2: recombinant human PSGL-1/Fc (Sino Biological Inc.) (Fc fusion, UniProt Q14242 42-320, looked up)
chain: QATEYEYLDYDFLPETEPPEMLRNSTDTTPLTGPGTPESTTVEPAARRSTGLDAGGAVTELTTELANMGNLSTDSAAMEIQTTQPAATEAQTTQPVPTEAQTTPLAATEAQTTRLTATEAQTTPLAATEAQTTPPAATEAQTTQPTGLEAQTTAPAAMEAQTTAPAAMEAQTTPPAAMEAQTTQTTAMEAQTTAPEATEAQTTQPTATEAQTTPLAAMEALSTEPSATEALSMEPTTKRGLFIPFSVSSVTHKGIPMAASNLSVNYPVGAPDHISVKQC
notes: P-selectin glycoprotein ligand-1, human; No catalogue number printed; source: bought: Sino Biological Inc
As to B2, in data set [6], the affinity, expressed as Kd, was 240 ± 67 nM.

Source of the values: paper PMC7553327, “The vimentin rod domain blocks P-selectin-P-selectin glycoprotein ligand 1 interactions to attenuate leukocyte adhesion to inflamed endothelium” (PLoS ONE, 2020).
